In the supplement of paper PMC10567573:

B1: KLHL12 (parent)
chain: SMTTPRCYVGATVLRGRLYAIAGY

Variants of: B1
Test: protein stability index of a GFP-peptide fusion (GPS, HEK-293T) (PSI 1-6); higher = more stable
Conditions: c terminus: a fixed tail appended
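Note: lentivirally expressed fusions sorted by FACS into six bins by GFP to DsRed ratio, PSI derived from sequencing read proportions per bin multiplied by bin number.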

Q: For SMTTPFCYVGATVLRGRLYAIAGY [R6F], which protein stability index is on record?
A: The protein stability index was 2.04.

Q: For SMTTPQCYVGATVLRGRLYAIAGY [R6Q], which protein stability index is on record?
A: The protein stability index was 2.54.

Q: With SMTTPDCYVGATVLRGRLYAIAGY [R6D] as the variant, how does the protein stability index read?
A: Its protein stability index is 2.56.

Q: With SMTTPRCYVGMTVLRGRLYAIAGY [A11M] as the variant, how does the protein stability index read?
A: Its protein stability index is 2.

Q: Which protein stability index does the source give for SMTTPRCYVGTTVLRGRLYAIAGY [A11T] here?
A: Its protein stability index is 1.49.

Q: For SMTTPRCYVGHTVLRGRLYAIAGY [A11H], which protein stability index is on record?
A: Its protein stability index is 1.8.

Q: Which protein stability index does the source give for SMTTPRCYVGGTVLRGRLYAIAGY [A11G] here?
A: Its protein stability index is 1.33.

Q: For SMTTPRCYVGDTVLRGRLYAIAGY [A11D], which protein stability index is on record?
A: The protein stability index was 1.42.

Q: Which protein stability index does the source give for SMTTPRCYVGCTVLRGRLYAIAGY [A11C] here?
A: Its protein stability index is 2.29.

Q: With SMTTPRCYVGNTVLRGRLYAIAGY [A11N] as the variant, how does the protein stability index read?
A: The protein stability index was 1.5.

Q: For SMTTPRCYVGFTVLRGRLYAIAGY [A11F], which protein stability index is on record?
A: The protein stability index was 2.01.

Q: With SMTTPRCYVGRTVLRGRLYAIAGY [A11R] as the variant, how does the protein stability index read?
A: The protein stability index was 3.02.

Q: Which protein stability index does the source give for SMTTPRCYVGSTVLRGRLYAIAGY [A11S] here?
A: Its protein stability index is 1.04.

Q: For SMTTPRCYVGYTVLRGRLYAIAGY [A11Y], which protein stability index is on record?
A: Its protein stability index is 2.99.

Q: Which protein stability index does the source give for SMTTPRCYVGQTVLRGRLYAIAGY [A11Q] here?
A: The protein stability index was 2.32.

Q: For SMTTPRCYVGKTVLRGRLYAIAGY [A11K], which protein stability index is on record?
A: The protein stability index was 2.19.

Q: For SMTTPRCYVGPTVLRGRLYAIAGY [A11P], which protein stability index is on record?
A: The protein stability index was 2.17.

Q: For SMTTPRCYVGETVLRGRLYAIAGY [A11E], which protein stability index is on record?
A: Its protein stability index is 1.5.

Q: Which protein stability index does the source give for SMTVPRCYVGATVLRGRLYAIAGY [T4V] here?
A: The protein stability index was 2.65.

Q: With SMTLPRCYVGATVLRGRLYAIAGY [T4L] as the variant, how does the protein stability index read?
A: Its protein stability index is 2.16.

Q: For SMTDPRCYVGATVLRGRLYAIAGY [T4D], which protein stability index is on record?
A: The protein stability index was 2.27.

Q: With SMTNPRCYVGATVLRGRLYAIAGY [T4N] as the variant, how does the protein stability index read?
A: Its protein stability index is 3.79.

Q: With SMTRPRCYVGATVLRGRLYAIAGY [T4R] as the variant, how does the protein stability index read?
A: Its protein stability index is 2.16.

Q: Which protein stability index does the source give for SMTFPRCYVGATVLRGRLYAIAGY [T4F] here?
A: Its protein stability index is 2.12.

Q: With SMTMPRCYVGATVLRGRLYAIAGY [T4M] as the variant, how does the protein stability index read?
A: The protein stability index was 3.38.

Q: Which protein stability index does the source give for SMTKPRCYVGATVLRGRLYAIAGY [T4K] here?
A: The protein stability index was 2.69.

Q: Which protein stability index does the source give for SMTHPRCYVGATVLRGRLYAIAGY [T4H] here?
A: The protein stability index was 3.03.

Q: Which protein stability index does the source give for SMTYPRCYVGATVLRGRLYAIAGY [T4Y] here?
A: The protein stability index was 2.75.

Q: For SMTIPRCYVGATVLRGRLYAIAGY [T4I], which protein stability index is on record?
A: Its protein stability index is 2.44.

Q: Which protein stability index does the source give for SMTSPRCYVGATVLRGRLYAIAGY [T4S] here?
A: Its protein stability index is 2.3.

Q: For SMTPPRCYVGATVLRGRLYAIAGY [T4P], which protein stability index is on record?
A: The protein stability index was 1.93.

Q: For SMTAPRCYVGATVLRGRLYAIAGY [T4A], which protein stability index is on record?
A: Its protein stability index is 1.

Q: For HMTTPRCYVGATVLRGRLYAIAGY [S1H], which protein stability index is on record?
A: The protein stability index was 1.51.

Q: For EMTTPRCYVGATVLRGRLYAIAGY [S1E], which protein stability index is on record?
A: Its protein stability index is 1.66.

Q: With RMTTPRCYVGATVLRGRLYAIAGY [S1R] as the variant, how does the protein stability index read?
A: Its protein stability index is 3.81.

Q: With QMTTPRCYVGATVLRGRLYAIAGY [S1Q] as the variant, how does the protein stability index read?
A: The protein stability index was 1.39.

Q: With DMTTPRCYVGATVLRGRLYAIAGY [S1D] as the variant, how does the protein stability index read?
A: Its protein stability index is 2.24.

Q: For PMTTPRCYVGATVLRGRLYAIAGY [S1P], which protein stability index is on record?
A: Its protein stability index is 3.62.

Q: For KMTTPRCYVGATVLRGRLYAIAGY [S1K], which protein stability index is on record?
A: Its protein stability index is 1.92.

Q: For LMTTPRCYVGATVLRGRLYAIAGY [S1L], which protein stability index is on record?
A: The protein stability index was 3.32.

Q: Which protein stability index does the source give for MMTTPRCYVGATVLRGRLYAIAGY [S1M] here?
A: Its protein stability index is 1.89.

Q: Which protein stability index does the source give for CMTTPRCYVGATVLRGRLYAIAGY [S1C] here?
A: The protein stability index was 3.04.

Q: Which protein stability index does the source give for FMTTPRCYVGATVLRGRLYAIAGY [S1F] here?
A: Its protein stability index is 2.24.

Q: Which protein stability index does the source give for NMTTPRCYVGATVLRGRLYAIAGY [S1N] here?
A: Its protein stability index is 1.9.

Q: With GMTTPRCYVGATVLRGRLYAIAGY [S1G] as the variant, how does the protein stability index read?
A: The protein stability index was 2.39.

Q: For AMTTPRCYVGATVLRGRLYAIAGY [S1A], which protein stability index is on record?
A: The protein stability index was 1.85.

Q: For IMTTPRCYVGATVLRGRLYAIAGY [S1I], which protein stability index is on record?
A: Its protein stability index is 2.52.

Q: With SMTTPRCSVGATVLRGRLYAIAGY [Y8S] as the variant, how does the protein stability index read?
A: The protein stability index was 2.77.

Q: Which protein stability index does the source give for SMTTPRCHVGATVLRGRLYAIAGY [Y8H] here?
A: The protein stability index was 1.74.

Q: With SMTTPRCTVGATVLRGRLYAIAGY [Y8T] as the variant, how does the protein stability index read?
A: The protein stability index was 2.12.

Q: With SMTTPRCAVGATVLRGRLYAIAGY [Y8A] as the variant, how does the protein stability index read?
A: The protein stability index was 2.

Q: Which protein stability index does the source give for SMTTPRCLVGATVLRGRLYAIAGY [Y8L] here?
A: Its protein stability index is 2.48.

Q: Which protein stability index does the source give for SMTTPRCEVGATVLRGRLYAIAGY [Y8E] here?
A: The protein stability index was 1.06.

Q: With SMTTPRCRVGATVLRGRLYAIAGY [Y8R] as the variant, how does the protein stability index read?
A: Its protein stability index is 1.21.

Q: Which protein stability index does the source give for SMTTPRCKVGATVLRGRLYAIAGY [Y8K] here?
A: The protein stability index was 2.88.

Q: Which protein stability index does the source give for SMTTPRCNVGATVLRGRLYAIAGY [Y8N] here?
A: Its protein stability index is 1.5.

Q: With SMTTPRCIVGATVLRGRLYAIAGY [Y8I] as the variant, how does the protein stability index read?
A: The protein stability index was 3.73.

Q: With SMTTPRCDVGATVLRGRLYAIAGY [Y8D] as the variant, how does the protein stability index read?
A: Its protein stability index is 1.71.

Q: For SMTTPRCQVGATVLRGRLYAIAGY [Y8Q], which protein stability index is on record?
A: The protein stability index was 2.18.

Q: Which protein stability index does the source give for SMTTPRCFVGATVLRGRLYAIAGY [Y8F] here?
A: The protein stability index was 2.98.

Q: With SMTTPRCWVGATVLRGRLYAIAGY [Y8W] as the variant, how does the protein stability index read?
A: Its protein stability index is 1.82.

Q: With SMTTPRCMVGATVLRGRLYAIAGY [Y8M] as the variant, how does the protein stability index read?
A: Its protein stability index is 1.57.

Q: For SMTTPRCPVGATVLRGRLYAIAGY [Y8P], which protein stability index is on record?
A: Its protein stability index is 1.71.

Q: With SMNTPRCYVGATVLRGRLYAIAGY [T3N] as the variant, how does the protein stability index read?
A: Its protein stability index is 1.46.

Q: For SMKTPRCYVGATVLRGRLYAIAGY [T3K], which protein stability index is on record?
A: Its protein stability index is 2.08.

Q: Which protein stability index does the source give for SMHTPRCYVGATVLRGRLYAIAGY [T3H] here?
A: The protein stability index was 2.34.

Q: Which protein stability index does the source give for SMPTPRCYVGATVLRGRLYAIAGY [T3P] here?
A: The protein stability index was 1.59.

Q: Which protein stability index does the source give for SMITPRCYVGATVLRGRLYAIAGY [T3I] here?
A: Its protein stability index is 1.02.

Q: Which protein stability index does the source give for SMVTPRCYVGATVLRGRLYAIAGY [T3V] here?
A: The protein stability index was 2.36.

Q: For SMETPRCYVGATVLRGRLYAIAGY [T3E], which protein stability index is on record?
A: The protein stability index was 1.65.

Q: With SMQTPRCYVGATVLRGRLYAIAGY [T3Q] as the variant, how does the protein stability index read?
A: Its protein stability index is 2.67.

Q: Which protein stability index does the source give for SMCTPRCYVGATVLRGRLYAIAGY [T3C] here?
A: Its protein stability index is 2.75.

Q: Which protein stability index does the source give for SMSTPRCYVGATVLRGRLYAIAGY [T3S] here?
A: The protein stability index was 2.31.

Q: For SMFTPRCYVGATVLRGRLYAIAGY [T3F], which protein stability index is on record?
A: Its protein stability index is 1.62.

Q: Which protein stability index does the source give for SMLTPRCYVGATVLRGRLYAIAGY [T3L] here?
A: The protein stability index was 2.72.

Q: For SMATPRCYVGATVLRGRLYAIAGY [T3A], which protein stability index is on record?
A: Its protein stability index is 2.97.

Q: For SMYTPRCYVGATVLRGRLYAIAGY [T3Y], which protein stability index is on record?
A: The protein stability index was 1.62.

Q: With SMMTPRCYVGATVLRGRLYAIAGY [T3M] as the variant, how does the protein stability index read?
A: Its protein stability index is 1.99.

Q: Which protein stability index does the source give for SVTTPRCYVGATVLRGRLYAIAGY [M2V] here?
A: Its protein stability index is 1.97.

Q: Which protein stability index does the source give for SPTTPRCYVGATVLRGRLYAIAGY [M2P] here?
A: Its protein stability index is 1.33.

Q: With STTTPRCYVGATVLRGRLYAIAGY [M2T] as the variant, how does the protein stability index read?
A: The protein stability index was 2.22.

Q: Which protein stability index does the source give for SETTPRCYVGATVLRGRLYAIAGY [M2E] here?
A: The protein stability index was 1.68.

Q: With SSTTPRCYVGATVLRGRLYAIAGY [M2S] as the variant, how does the protein stability index read?
A: The protein stability index was 3.02.

Q: With SLTTPRCYVGATVLRGRLYAIAGY [M2L] as the variant, how does the protein stability index read?
A: Its protein stability index is 2.64.

Q: With SITTPRCYVGATVLRGRLYAIAGY [M2I] as the variant, how does the protein stability index read?
A: The protein stability index was 1.65.

Q: For SNTTPRCYVGATVLRGRLYAIAGY [M2N], which protein stability index is on record?
A: The protein stability index was 2.96.

Q: With SYTTPRCYVGATVLRGRLYAIAGY [M2Y] as the variant, how does the protein stability index read?
A: The protein stability index was 2.77.

Q: Which protein stability index does the source give for SDTTPRCYVGATVLRGRLYAIAGY [M2D] here?
A: Its protein stability index is 2.48.

Q: For SFTTPRCYVGATVLRGRLYAIAGY [M2F], which protein stability index is on record?
A: Its protein stability index is 3.06.

Q: With SQTTPRCYVGATVLRGRLYAIAGY [M2Q] as the variant, how does the protein stability index read?
A: The protein stability index was 1.48.

Q: Which protein stability index does the source give for SATTPRCYVGATVLRGRLYAIAGY [M2A] here?
A: Its protein stability index is 2.19.

Q: For SGTTPRCYVGATVLRGRLYAIAGY [M2G], which protein stability index is on record?
A: Its protein stability index is 2.78.

Q: For SHTTPRCYVGATVLRGRLYAIAGY [M2H], which protein stability index is on record?
A: The protein stability index was 1.93.

Q: For SRTTPRCYVGATVLRGRLYAIAGY [M2R], which protein stability index is on record?
A: Its protein stability index is 2.35.
